Where two headings read alike, the source gives them in different places.

The target of test [1] is T1, human Tim-3 expressed on the cell surface (human, UniProt Q8TDQ0 22-301).
T1 construct: also called hTim-3; Human Tim-3 (CHO)
The experiment in a line: flow cytometry, CHO-human Tim-3 cells. (In general: A flow cytometer gives signals particle by particle.)

The target in test [2] is T2, human Tim-3 (Biacore analyte; TIM-3-Fc or TIM-3-HIS, not said which) (human, UniProt Q8TDQ0 22-202).
T2 construct: also called TIM-3 antigen; not shown: Fc or HIS tag
In words: SPR Biacore, human Tim-3 (Fc or HIS not said). For orientation: Surface plasmon resonance follows binding to a sensor surface in real time, without labels.

Test [3] deals with T3, cynomolgus Tim-3 expressed on CHO cells (cynomolgus monkey).
T3 construct: also called cTim-3; Cyno Tim-3 (CHO)
T3 chain: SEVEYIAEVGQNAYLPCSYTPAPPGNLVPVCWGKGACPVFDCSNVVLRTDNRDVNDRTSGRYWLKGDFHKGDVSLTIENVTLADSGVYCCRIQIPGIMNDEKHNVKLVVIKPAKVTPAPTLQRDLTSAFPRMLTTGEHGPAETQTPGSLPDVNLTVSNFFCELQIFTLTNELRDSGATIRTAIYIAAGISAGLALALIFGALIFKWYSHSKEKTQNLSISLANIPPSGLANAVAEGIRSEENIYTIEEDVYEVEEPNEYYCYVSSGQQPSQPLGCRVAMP
In words: flow cytometry, CHO-cyno Tim-3 cells.

The target in test [4] is T4, human PD-1 expressed on CHO cells (human, UniProt Q15116 25-288).
T4 construct: also called hPD-1; CHO-hPD-1
In words: hPD-1 binding titration (format not named; taken as cell binding).

Test [5] has as its target T1, human Tim-3 expressed on the cell …. The experiment in a line: flow cytometry, activated human CD4+ T cells.
The target of test [6] is T5, recombinant human Tim-3-Fc (R&D Systems, 2365-TM) (human, UniProt Q8TDQ0 22-202, biotinylated in the Galectin-9 competition ELISA (sites not given)).
T5 construct: Bought protein; also called huTim-3-Fc; biotinylated Tim-3-Fc; not shown: Fc of the bought fusion protein
The experiment in a line: SPR Biacore, human Tim-3 Fc; KD estimated.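 Further: antibodies captured on an anti-FLAG sensor surface, Tim-3-Fc flowed over as analyte at 25 °C in HBS-EP+ buffer, rates fit with a 1:1 Langmuir model.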

Test [7] addresses T5, recombinant human Tim-3-Fc (R&D …). In words: SPR Biacore, human Tim-3 Fc.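 Further: antibodies captured on an anti-FLAG sensor surface, Tim-3-Fc flowed over as analyte at 25 °C in HBS-EP+ buffer, rates fit with a 1:1 Langmuir model.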
The target in test [8] is T1, human Tim-3 expressed on the cell …. In words: flow cytometry, CHO-human Tim-3 cells. This is another data set of the same source.
Test [9] deals with T3, cynomolgus Tim-3 expressed on CHO cells. The experiment in a line: flow cytometry, CHO-cyno Tim-3 cells.
Test [10] addresses T1, human Tim-3 expressed on the cell …. In words: flow cytometry, CHO-human Tim-3 cells. More on the design: Bmax: unit not given here.
Test [11] concerns the target T6, biotinylated recombinant human PD-1 (AcroBiosystems) (human, UniProt Q15116 25-167, limits assumed, biotinylated (sites not given)).
T6 construct: Bought protein; also called biotinylated PD-1
The experiment in a line: competition, flow cytometry: biotin-PD-1 binding to CHO-human PD-L1 cells.

Test [12] concerns the target T4, human PD-1 expressed on CHO cells. In words: flow cytometry, CHO-human PD-1 cells. Also noted: Bmax: unit not given here.

B1: SRP1649-B06 (antibody, V domains shown)
VH: EVQLVESGGGLVQPGGSLRLSCAASGFNISNHAIHWVRQAPGKGLEWVADISPAVGYTDYADSVKDRFTISADTSKNTAYLQMNSLRAEDTAVYYCARGYVYRMWDSFDHWGQGTLVTVSS
VL: not shown
notes: IgG with trastuzumab LC; HIS- and FLAG-tagged
In test [1], B1 registered a Kd of 0.2 nM. In test [2], the Kd was 66.9 nM, the koff was 0.0126 s⁻¹ and the kon came out at 189000 M⁻¹ s⁻¹. In test [3], this molecule came in with a Kd of 1.9 nM.

B2: SRP1649-C05 (antibody, V domains shown)
VH: EVQLVESGGGLVQPGGSLRLSCAASGFNIGKHVIHWVRQAPGKGLEWVADIVPNGGYTEYADSVKDRFTISADTSKNTAYLQMNSLRAEDTAVYYCARGYVYRMWDSFDYWGQGTLVTVSS
VL: not shown
notes: as for B1
As to B2, the Kd in test [1] came out at 0.2 nM. In [2], the Kd was determined as 13.7 nM, the koff amounted to 0.00166 s⁻¹ and the kon came to 121000 M⁻¹ s⁻¹. For the same molecule, in [3], the Kd came out at 0.8 nM.

B3: SRP1649-D06 (antibody, V domains shown)
VH: EVQLVESGGGLVQPGGSLRLSCAASGFNIRNHAIHWVRQAPGKGLEWVADIAPAGGYTDYADSVKDRFTISADTSKNTAYLQMNSLRAEDTAVYYCARGYVYRMWDSYDYWGQGTLVTVSS
VL: not shown
notes: as for B1
The molecule B3 showed a Kd in test [1] of 0.1 nM. In test [2], this molecule displayed a Kd of 74.6 nM, a koff of 0.0205 s⁻¹ and a kon of 275000 M⁻¹ s⁻¹. The molecule further showed a Kd in [3] of 1 nM.

B4: SRP1649-E08 (antibody, V domains shown)
VH: EVQLVESGGSLVQPGGSLRLSCAASGFSISNYVIHWVRQAPGKGLEWVADISPDGGFTDYADSVKDRFTISADTSKNTAYLQMNSLRAEDTAVYYCARGHVYRLWDSFDYWGRGTLVTVSS
VL: not shown
notes: as for B1
Consider B4, for which the Kd is 0.2 nM in [1], 13.5 nM in test [2] and 12.4 nM in test [3]. The same molecule registered a koff in [2] of 0.00182 s⁻¹. For the same molecule, the kon in test [2] was determined as 135000 M⁻¹ s⁻¹.

B5: SRP1649-E10 (antibody, V domains shown)
VH: EVQLVESGGGLVQPGGSLRLSCAASGFNISNNVIHWVRQAPGKGLEWVGDIMPGGGSTDYADSVKDRFTISADTSKNTAYLQMNSLRAEDTAVYYCARGYVYRMWDSYDYWGQGTLVTVSS
VL: not shown
notes: as for B1
Take B5: the Kd in test [1] stood at 0.2 nM. In test [2], this molecule displayed a Kd of 49.7 nM, a koff of 0.014 s⁻¹ and a kon of 281000 M⁻¹ s⁻¹. Moreover, the equilibrium dissociation constant (Kd) in test [3] is 7.4 nM.

B6: SRP1649-H02 (antibody, V domains shown)
VH: EVQLVESGGGLVQPGGSLRLSCAASGFNIRSYAIHWVRQAPGKGLEWVADITPAGGDTEYADSVKGRFTISADTSKNTAYLQMNSLRAEDTAVYYCARGYIYRMWDSYDYWGQGTLVTVSS
VL: not shown
notes: as for B1
For B6, the Kd in [1] came to 0.2 nM. Besides, in [2], the affinity, expressed as Kd, was 23.9 nM; the koff was 0.00374 s⁻¹; the kon is 157000 M⁻¹ s⁻¹. The molecule further came in with a Kd in test [3] of 2.2 nM.

B7: SRP1649-G08 (antibody, V domains shown)
VH: EVQLVESGGGLVQPGGSLRLSCAASGFNISNYVIHWVRQAPGKGLEWVAAITPDGGITEYADSVKGRFAISADTSKNTAYLQMNSLRAEDTAVYYCARGYVYRMWDSYDYWGQGTLVTVSS
VL: not shown
notes: as for B1
On to B7, for which the equilibrium dissociation constant (Kd) in test [1] was 0.2 nM. In addition, in [2], the Kd was 12.8 nM, the koff worked out at 0.00243 s⁻¹ and the kon turned out to be 191000 M⁻¹ s⁻¹. In addition, binding in [3] was characterised by a dissociation constant (Kd) of 9.3 nM.

B8: SRP1649-D11 (antibody, V domains shown)
VH: EVQLVESGGGLVQPGGSLRLSCAASGFNISGYVIHWVRQAPGKGLEWVADIIPTAGYTEYADSVKGRFTISADTSKNTAYLQMNSLRAEDTAVYYCARGYVYRMWDSFDYWGQGTLVTVSS
VL: not shown
notes: as for B1
Turning to B8, the results for the Kd in test [1], in [2] and in [3] were 0.1 nM, 10.6 nM and 2.2 nM, respectively. Moreover, the koff in test [2] was found to be 0.00159 s⁻¹. In test [2], this molecule showed a kon of 150000 M⁻¹ s⁻¹.

B9: SRP1649-B09 (antibody, V domains shown)
VH: EVQLVESGGGLVQPGGSLRLSCAASGFNIRNNAIHWVRQAPGKGLEWVADITPAGGYTGYADSVKDRFTISADTSKNTAYLQMNSLRAEDTAVYYCARGYIYRMWDSLDYWGQGTLVTVSS
VL: not shown
notes: as for B1
B9 registered a Kd in [1] of 0.2 nM. In test [2], this molecule yielded a Kd of 18.8 nM, a koff of 0.00249 s⁻¹ and a kon of 133000 M⁻¹ s⁻¹. This molecule also showed a Kd in test [3] of 9.4 nM.

B10: 1353-G10 H1/vk1-39 IgG (antibody, V domains shown)
VH: EVQLVQSGAEVKKPGASVKVSCKASGYTFDSYGISWVRQAPGQGLEWMGWISAYNGNTNYAQKLQGRVTMTTDTSTNTAYMELRSLRSDDTAVYYCARDVDYGTGSGYWGQGTLVTVSS
VL: DIQLTQSPSSLSASVGDRVTITCSGDALPKQYAYWYQQKPGKAPKLLIYKDTERPSGVPSRFSGSSSGTKVTLTISSLQPEDFATYYCQSADNSITYRVFGGGTKVEIK
notes: IgG; also called Sample L
In test [4], B10 gave a Bmax of 4940 and a Kd of 12.9 nM.

B11: h22E11-VK2-28 × h22E11-5-IgG-HC (antibody, V domains shown)
VH: EVQLVESGGGLVQPGGSLRLSCAVSGFSLTSYGVHWVRQAPGKGLEWLVVIWSDGSTTYNSALKSRFTISKDNAKNSVYLQMNSLRAEDTAVYYCARQGGYRYDDAMDYWGQGTLVTVSS
VL: DIVLTQSPLSLPVTPGEPASISCKASQSVDYDGNSYVNWYLQKPGQSPQLLIYAASNLESGVPDRFSGSGSGTDFTLKISRVEAEDVGVYYCQQSNEDPYTFGQGTKVEIK
notes: Humanized m22E11
With B11, the Kd in [5] was 3.3 nM; in test [6], 6.7 nM; in test [8] it was 0.8 nM; in test [9], 4.1 nM. The koff in [7] is 0.00101 s⁻¹.

B12: h22E11-VK2-28 × h22E11-VH4-30-4 (antibody, V domains shown)
VH: QVQLQESGPGLVKPSQTLSLTCTVSGFSLTSYGVHWIRQPPGKGLEWLVVIWSDGSTTYNPSLKSRVTISKDTSKNQVSLKLSSVTAADTAVYYCARQGGYRYDDAMDYWGQGTLVTVSS
VL: DIVLTQSPLSLPVTPGEPASISCKASQSVDYDGNSYVNWYLQKPGQSPQLLIYAASNLESGVPDRFSGSGSGTDFTLKISRVEAEDVGVYYCQQSNEDPYTFGQGTKVEIK
notes: Humanized m22E11
For the molecule B12, the Kd in test [5] is 9.2 nM; in [6], 7.9 nM; in test [8] it was 0.8 nM; in test [9], 4.3 nM. Further, in test [7], the koff turned out to be 0.00109 s⁻¹.

B13: h22E11-VK2-28 × h22E11-VH5-51 (antibody, V domains shown)
VH: EVQLVQSGAEVKKPGESLKISCKVSGFSLTSYGVHWVRQMPGKGLEWLVVIWSDGSTTYNPSFQGQVTISKDKSISTVYLQWSSLKASDTAMYYCARQGGYRYDDAMDYWGQGTLVTVSS
VL: DIVLTQSPLSLPVTPGEPASISCKASQSVDYDGNSYVNWYLQKPGQSPQLLIYAASNLESGVPDRFSGSGSGTDFTLKISRVEAEDVGVYYCQQSNEDPYTFGQGTKVEIK
notes: Humanized m22E11
As to B13, the Kd in test [5] is 0.7 nM; in test [6], 4.8 nM; in test [8], 0.6 nM; in test [9], 2.3 nM. For the same molecule, in test [7], the koff turned out to be 0.000903 s⁻¹.

B14: 1353-G10 scFvFc-zwB × 1649-A01 Hc zwA Y56D/TrstmbLC S56D (bispecific antibody)
scFv: not shown
VH: EVQLVESGGGLVQPGGSLRLSCAASGFNISRYYIHWVRQAPGKGLEWVAGITPVRGDTEYADSVKDRFTISADTSKNTAYLQMNSLRAEDTAVYYCARGYVYRMWDSYDYWGQGTLVTVSS
VL: not shown
notes: Tim-3 heavy chain with zwA CH3 mutations
Turning to B14, in test [10], the Bmax came to 11200 and binding was put at a Kd of 4.5 nM. For the same molecule, the 50% inhibitory concentration (IC50) in test [11] turned out to be 82 nM. In test [12], the Bmax turned out to be 13300 and binding was put at a Kd of 2.3 nM.

B15: h22E11-VK4-1 × h22E11-VH1-69 (antibody, V domains shown)
VH: QVQLVQSGAEVKKPGSSVKVSCKVSGFSLTSYGVHWVRQAPGQGLEWLVVIWSDGSTTYNQKFQGRVTITKDESTSTVYMELSSLRSEDTAVYYCARQGGYRYDDAMDYWGQGTLVTVSS
VL: DIVLTQSPDSLAVSLGERATINCKASQSVDYDGNSYVNWYQQKPGQPPKLLIYAASNLESGVPDRFSGSGSGTDFTLTISSLQAEDVAVYYCQQSNEDPYTFGQGTKVEIK
notes: Humanized m22E11
Turning to B15, the Kd in test [5] is 6.3 nM; in test [6], 5.5 nM; in [8] it was 1 nM; in test [9] it was 2.5 nM. In addition, the koff in test [7] was 0.000863 s⁻¹.

By Kd is commonly meant the constant that tells how readily two partners part at equilibrium. For orientation: koff means the rate constant with which the complex falls apart. What is called kon is a measure of how fast the partners come together. The term IC50 denotes the concentration needed to halve the response being measured.

Source of the values: US20200190192A1 (SUTRO BIOPHARMA, published 2020).
